Values joined by “and” are separate entries in the source; they are usually repeats but may differ in a detail not shown here. Equal entries are not always repeated. Values belong to the molecule of their own block, whether it stands above or below them.
What was measured:
[1] = target: crRNA-guided surveillance complex (Csy complex) of the type I-F CRISPR-Cas system from P. aeruginosa (P. aeruginosa) (UniProt Q02ML9); experiment: SEC-MALS; mix of AcrIF24 and Csy complex (7.5 mg/mL), AcrIF24:Csy 5:1; Superdex-200 10/300 GL, 20 mM HEPES pH 7.5, 200 mM NaCl
[2] = target: crRNA-guided surveillance complex (Csy complex) of the type I-F CRISPR-Cas system from P. aeruginosa (P. aeruginosa) (UniProt Q02ML9); experiment: SPR; Biacore 8K, 25 °C; Csy complex immobilised on a CM5 chip (~10,000 RU), AcrIF24 injected; 20 mM HEPES pH 7.5, NaCl, 0.05% Tween-20; 1:1 Langmuir model
[3] = target: crRNA-guided surveillance complex (Csy complex) of the type I-F CRISPR-Cas system from P. aeruginosa (P. aeruginosa) (UniProt Q02ML9); experiment: SEC-MALS; mix of AcrIF24 and Csy complex (7.5 mg/mL), AcrIF24:Csy 1:1; Superdex-200 10/300 GL, 20 mM HEPES pH 7.5, 200 mM NaCl
[4] = target: AcrIF24 (full-length, wild type) (Pseudomonas aeruginosa prophage); experiment: SEC-MALS; Superdex-200 10/300 GL, 20 mM HEPES pH 7.5, 200 mM NaCl; AcrIF24 1.5 mg/mL, AcrIF24ΔMD 15 mg/mL; gel filtration coupled with static light scattering
[5] = target: crRNA-guided surveillance complex (Csy complex) of the type I-F CRISPR-Cas system from P. aeruginosa (P. aeruginosa) (UniProt Q02ML9); experiment: SEC-MALS; mix of AcrIF24 and Csy complex (7.5 mg/mL), AcrIF24:Csy 1:5; Superdex-200 10/300 GL, 20 mM HEPES pH 7.5, 200 mM NaCl
[6] = target: crRNA-guided surveillance complex (Csy complex) of the type I-F CRISPR-Cas system from P. aeruginosa (P. aeruginosa) (UniProt Q02ML9); experiment: SEC-MALS; co-expressed and purified Csy-AcrIF24 complex, 1.5 mg/mL; Superdex-200 10/300 GL, 20 mM HEPES pH 7.5, 200 mM NaCl
[7] = target: AcrIF24 Δmiddle domain (Pseudomonas aeruginosa prophage); experiment: SEC-MALS; Superdex-200 10/300 GL, 20 mM HEPES pH 7.5, 200 mM NaCl; AcrIF24 1.5 mg/mL, AcrIF24ΔMD 15 mg/mL; gel filtration coupled with static light scattering
[8] = test system: AcrIF24 (Pseudomonas aeruginosa prophage); experiment: EMSA; conditions: EMSA: 20 mM HEPES pH 7.5, 150 mM NaCl, 5% glycerol, 37 C 30 min, 1 uM DNA (20 nM for Kd), MST: 20 mM HEPES pH 7.5, 150 mM KCl
[9] = target: Csy complex;AcrIF24 (Pseudomonas aeruginosa;Pseudomonas aeruginosa prophage) (UniProt Q02ML9+Q02MM0+Q02MM1+Q02MM2); experiment: MST; conditions: Kd only in figure, EMSA: 20 mM HEPES pH 7.5, 150 mM NaCl, 5% glycerol, 37 C 30 min, 1 uM DNA (20 nM for Kd), MST: 20 mM HEPES pH 7.5, 150 mM KCl
[10] = target: Csy complex;AcrIF9 (Pseudomonas aeruginosa;) (UniProt Q02ML9+Q02MM0+Q02MM1+Q02MM2); experiment: MST; conditions: Kd only in figure, EMSA: 20 mM HEPES pH 7.5, 150 mM NaCl, 5% glycerol, 37 C 30 min, 1 uM DNA (20 nM for Kd), MST: 20 mM HEPES pH 7.5, 150 mM KCl
[11] = test system: AcrIF24ΔMD (Pseudomonas aeruginosa prophage); experiment: EMSA; conditions: EMSA: 20 mM HEPES pH 7.5, 150 mM NaCl, 5% glycerol, 37 C 30 min, 1 uM DNA (20 nM for Kd), MST: 20 mM HEPES pH 7.5, 150 mM KCl
Csy complex = target: T1, Csy complex (Pseudomonas aeruginosa, UniProt Q02ML9;Q02MM0;Q02MM1;Q02MM2 1-434;1-327;1-342;1-187); experiment: EMSA; EMSA: 20 mM HEPES pH 7.5, 150 mM NaCl, 5% glycerol, 37 C 30 min, 1 uM DNA (20 nM for Kd); MST: 20 mM HEPES pH 7.5, 150 mM KCl, 5% glycerol; conditions: protein: recombinant, copies: 1;1;6;1, blunt
T1 sequence 1: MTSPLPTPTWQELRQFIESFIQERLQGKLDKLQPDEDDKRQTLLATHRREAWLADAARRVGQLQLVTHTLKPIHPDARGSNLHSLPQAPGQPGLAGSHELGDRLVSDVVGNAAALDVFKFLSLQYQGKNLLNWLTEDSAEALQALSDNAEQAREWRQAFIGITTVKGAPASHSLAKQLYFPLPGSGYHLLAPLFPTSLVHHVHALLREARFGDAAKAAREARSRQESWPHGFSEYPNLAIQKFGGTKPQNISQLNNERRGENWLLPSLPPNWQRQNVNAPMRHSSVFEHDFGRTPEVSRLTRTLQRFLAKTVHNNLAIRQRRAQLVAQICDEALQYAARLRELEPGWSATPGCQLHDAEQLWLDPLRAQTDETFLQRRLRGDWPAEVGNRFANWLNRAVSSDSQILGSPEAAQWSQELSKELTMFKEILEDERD
T1 sequence 2: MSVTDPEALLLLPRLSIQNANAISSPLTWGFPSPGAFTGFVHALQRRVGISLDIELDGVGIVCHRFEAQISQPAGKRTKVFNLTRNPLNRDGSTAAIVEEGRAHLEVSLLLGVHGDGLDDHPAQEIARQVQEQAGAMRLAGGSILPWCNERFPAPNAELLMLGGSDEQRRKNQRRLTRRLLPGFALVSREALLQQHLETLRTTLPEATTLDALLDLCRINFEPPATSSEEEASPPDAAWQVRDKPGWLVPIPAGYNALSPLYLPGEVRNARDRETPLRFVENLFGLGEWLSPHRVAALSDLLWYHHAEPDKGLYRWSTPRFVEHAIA
T1 sequence 3: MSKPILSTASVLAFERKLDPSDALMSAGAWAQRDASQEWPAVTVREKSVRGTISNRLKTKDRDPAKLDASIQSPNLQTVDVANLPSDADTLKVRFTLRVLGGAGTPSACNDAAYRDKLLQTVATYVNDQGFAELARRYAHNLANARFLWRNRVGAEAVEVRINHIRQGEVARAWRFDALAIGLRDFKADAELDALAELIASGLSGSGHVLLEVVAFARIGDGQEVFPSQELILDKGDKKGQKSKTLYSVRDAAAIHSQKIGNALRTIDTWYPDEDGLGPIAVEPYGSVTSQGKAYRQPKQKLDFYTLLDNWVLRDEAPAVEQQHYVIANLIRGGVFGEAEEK
T1 sequence 4: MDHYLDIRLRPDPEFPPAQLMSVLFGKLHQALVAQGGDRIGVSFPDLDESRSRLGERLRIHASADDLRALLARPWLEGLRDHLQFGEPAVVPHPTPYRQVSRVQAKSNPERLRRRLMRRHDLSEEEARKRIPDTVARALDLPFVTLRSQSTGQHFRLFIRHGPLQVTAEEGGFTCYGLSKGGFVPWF

- stoichiometry N (AcrIF24 per Csy complex) [1]: 2 and 1
- Kd [2]: 0.00421 µM
- koff [2]: 0.00118 s⁻¹
- kon [2]: 281000 M⁻¹ s⁻¹
- stoichiometry N (AcrIF24 per Csy complex) [3]: 1
- stoichiometry N [4]: 2
- stoichiometry N (AcrIF24 per Csy complex) [5]: 1
Molecule: AcrIF24 (full-length, wild type) (natural protein)

- stoichiometry N (AcrIF24 per Csy complex) [6]: 1
Molecule: AcrIF24 co-expressed with the Csy complex (natural protein)

- stoichiometry N [7]: 2
Molecule: AcrIF24 Δmiddle domain (domain or fragment)

Molecule: GAGCGACTACGACATGAGCGCGCAGCTAAGACCGCCCGTAGATGCGTCGAGCGT (double strand) [dsDNANS 54 bp]
- Kd [8]: 3.46 µM

Molecule: GAGCGACTACGACATGAGCGCGCAGCTAAGACCGCCCGTAGATGCGTCGAGCGT [ssDNANS 54 nt]
- binding signal (fold weaker than ssDNASP) [9]: 10
- binding signal (fold weaker than ssDNASP) [10]: 10

Molecule: GCATAGCTCGATCCGAGCTAGTA (double strand) [IR23-24 WT]
- Kd [8]: 0.0202 µM
- Kd [11]: 0.0491 µM

B1: dsDNANS 54 bp (dsDNA)
DNA 1: GAGCGACTACGACATGAGCGCGCAGCTAAGACCGCCCGTAGATGCGTCGAGCGT
DNA 2: ACGCTCGACGCATCTACGGGCGGTCTTAGCTGCGCGCTCATGTCGTAGTCGCTC
- binding result (Csy complex; label: 5'-FAM or 3'-FAM): no binding

B2: dsDNASP 54 bp (dsDNA)
DNA 1: GGAAGCCATCCAGGTAGACGCGGACATCAAGCCCGCCGTGAAGGTGCAGCTGCT
DNA 2: AGCAGCTGCACCTTCACGGCGGGCTTGATGTCCGCGTCTACCTGGATGGCTTCC
- binding result (Csy complex; label: 5'-FAM or 3'-FAM on target strand, unlabelled in some assays): binds

Reference: PMC9001735, “Insights into the inhibition of type I-F CRISPR-Cas system by a multifunctional anti-CRISPR protein AcrIF24”
